Measurements as given in the supplement of paper PMC10567573.

B1: MYBL2 (parent)
chain: FPNRTDQQCQYRWLRVLNPDLVKG

Variants of: B1
Test: protein stability index of a GFP-peptide fusion (GPS, HEK-293T) (PSI 1-6); higher = more stable
Conditions: c terminus: a fixed tail appended
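Also: lentivirally expressed fusions sorted by FACS into six bins by GFP to DsRed ratio, PSI derived from sequencing read proportions per bin multiplied by bin number.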

Protein stability index, by site and new letter:
P19: N 2.01, Q 1.94, D 1.97, L 1.76, Y 2.02, T 1.67, R 1.84, V 1.94, C 2.5, M 2.2, I 2.11, H 2.22, W 1.63, A 1.81, G 2.26, K 2.36, E 1.85, S 2.06, F 1.45
N18: G 1.6, Y 2.16, T 2.19, F 2.73, K 1.68, D 2.09, V 1.61, W 2.05, E 2.16, P 1.98, Q 1.97, S 2.17, M 1.75, R 3.02, A 2.17, I 1.09, L 2.74, C 2.8
L17: M 1.95, E 2.32, N 2.28, K 2.47, A 2.41, Q 2.45, S 2.78, I 2.01, G 2.45, Y 1.34, R 2.28, P 2.56, T 1.63, H 1.6, C 1.79, F 1.41, V 2.04, D 1.91
D20: G 1.6, A 2.13, E 2.03, P 2.35, Q 1.78, C 1.83, R 2.22, L 1.7, H 2.06, V 1.14, I 1.74, M 1.89, T 1.54, S 2.24, N 2.43, F 1.68, K 2.06, Y 1.76, W 2.27
V16: D 2.99, H 2.39, T 2.13, C 1.97, I 1.57, M 1.78, F 1.81, Y 1.72, L 1.77, Q 2.46, N 2.05, R 1.56, P 2.72, S 2.2, W 2.57, E 2.44, A 1.87, K 2.02, G 2.12
L21: P 2.83, K 2.01, C 2.18, M 2.27, H 1.48, V 2.26, Q 2.08, R 2.31, S 2.17, F 2.26, E 2.43, W 1.91, G 1.66, I 2.85, T 2.26, D 2.12, N 2.37, A 1.88, Y 1.98
L14: Y 1.83
R15: A 1.45, S 2, I 2.25, N 1.52, M 1, C 2.19, P 1.92, D 2.48, H 2.31, K 1.31, W 2.96, E 2.44, Q 2.15, L 1.98, V 2.2, F 2.36, G 2.18, T 1.45, Y 2.14
V22: E 1.55, K 1.64, W 2.11, R 1.66, A 1.71, G 2, I 2.04, S 2.25, Q 1.54, P 1.83, L 2.21, T 1.95, D 2.02, C 1.79, Y 2.01, F 1.59, N 2.01, M 2.08, H 2.74
K23: R 2.21, N 2.11, A 1.22, C 3.33, M 1.5, S 1.26, D 1.97, E 1.89, Q 2.1, I 1.95, H 1.7, L 1.64, P 2.06, T 1.59, G 1.8, F 2.47
